Measurements published in patent US20240092889A1 (Chugai, published 2024).

T1: recombinant human C1r2s2 tetramer (human, UniProt P09871 16-688; P00736 18-705)
T1 construct: C1s and C1r co-expressed in HEK293/FreeStyle 293-F and purified from conditioned medium
T1 chain 1: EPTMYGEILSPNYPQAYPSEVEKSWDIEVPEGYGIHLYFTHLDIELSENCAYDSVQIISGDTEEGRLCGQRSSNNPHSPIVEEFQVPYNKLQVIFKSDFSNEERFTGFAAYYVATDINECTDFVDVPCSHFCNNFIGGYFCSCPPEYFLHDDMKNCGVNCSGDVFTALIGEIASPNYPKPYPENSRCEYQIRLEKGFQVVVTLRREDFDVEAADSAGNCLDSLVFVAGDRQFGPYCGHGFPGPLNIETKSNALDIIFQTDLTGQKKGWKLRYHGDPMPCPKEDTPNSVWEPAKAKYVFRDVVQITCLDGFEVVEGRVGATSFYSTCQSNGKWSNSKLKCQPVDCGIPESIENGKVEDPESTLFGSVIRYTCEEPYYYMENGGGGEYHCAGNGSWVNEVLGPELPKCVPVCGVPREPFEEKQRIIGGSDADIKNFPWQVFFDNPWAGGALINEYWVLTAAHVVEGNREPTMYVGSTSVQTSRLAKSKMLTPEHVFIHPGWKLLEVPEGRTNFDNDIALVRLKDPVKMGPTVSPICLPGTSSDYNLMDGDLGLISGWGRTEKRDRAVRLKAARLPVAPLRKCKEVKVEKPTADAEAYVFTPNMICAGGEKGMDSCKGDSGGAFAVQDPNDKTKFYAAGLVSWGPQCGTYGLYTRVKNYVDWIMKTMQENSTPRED
T1 chain 2: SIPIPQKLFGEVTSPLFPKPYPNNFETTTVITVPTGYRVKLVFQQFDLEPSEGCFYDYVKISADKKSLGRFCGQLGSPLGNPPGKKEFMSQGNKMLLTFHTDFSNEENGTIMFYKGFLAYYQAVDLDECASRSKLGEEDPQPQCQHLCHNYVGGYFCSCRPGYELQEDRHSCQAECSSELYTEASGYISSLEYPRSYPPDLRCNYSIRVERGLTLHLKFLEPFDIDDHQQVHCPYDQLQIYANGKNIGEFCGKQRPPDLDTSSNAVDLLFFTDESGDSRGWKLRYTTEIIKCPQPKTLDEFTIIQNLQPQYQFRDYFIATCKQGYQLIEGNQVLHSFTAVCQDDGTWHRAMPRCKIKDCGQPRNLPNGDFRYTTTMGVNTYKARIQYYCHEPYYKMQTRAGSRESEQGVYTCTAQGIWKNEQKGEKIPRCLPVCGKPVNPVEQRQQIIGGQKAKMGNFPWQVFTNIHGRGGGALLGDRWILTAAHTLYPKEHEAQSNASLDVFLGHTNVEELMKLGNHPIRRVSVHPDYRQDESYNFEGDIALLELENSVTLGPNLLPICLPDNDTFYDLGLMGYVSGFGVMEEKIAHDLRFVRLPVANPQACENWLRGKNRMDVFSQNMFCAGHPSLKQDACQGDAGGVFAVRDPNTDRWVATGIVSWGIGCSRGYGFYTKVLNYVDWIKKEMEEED


Target: T1, recombinant human C1r2s2 tetramer
Test: SPR (BIACORE), antibody captured by ProL, human C1r2s2 injected at 100 nM, pH 7.4, 37 C
Protocol: Analysis of interaction between antibody variants and the human C1r2s2 prepared as mentioned above was carried out at pH7.4, at 37 degrees C. using BIACORE® T200 instrument (GE Healthcare) or BIACORE® 4000 (GE Healthcare). ProL (BioVision) was immobilized onto a CM4 sensorchip using amine coupling kit (GE Healthcare) according to the recommended settings by GE Healthcare. Antibodies and analytes were diluted into the respective running buffers, ACES pH7.4 (20 mM ACES (N-(2-Acetamido)-2-aminoethanesulfonic acid), 150 mM NaCl, 1.2 mM CaCl2, 1 mg/ml bovine serum albumin (BSA), 1 mg/ml CMD (CM-Dextran sodium salt), 0.05% Tween® 20 (polysorbate 20), 0.005 w/v % NaN3). Each antibody was captured onto the sensor surface by ProL. Antibody capture levels were aimed at 200 resonance units (RU). Then, recombinant human C1r2s2 was injected at concentrations of 25 and 100 nM followed by dissociation at pH7.4. The surface was regenerated using 10 mM Glycine-HCl, pH1.5.

Binder | binding result
AL0451 (antibody, human IgG1, kappa, V domains shown, COS0637temp with VL C94A (Kabat), already in the VL entry) VH: QVQLVESGGGVVQPGRSLRLSCAASGFTFSAYAMNWIRQPPGKGLEWIGLIYGSGSTFYASWAKGRVTISVDTSKNQFSLKLSSVTAADTAVYYCARGRSVNYNSDFHLWGQGTLVTVSS VL: DIQMTQSPSSLSASVGDRVTITCQASQSLHDKKNLAWYQQKPGQPPKLLIYGASTLESGVPSRFSGSGSGTDFTLTISSLQPEDFATYYCQGEFSASSADCNTFGQGTKVEIKR | no binding (tested: 100 nM)
AL0452 (antibody, human IgG1, kappa, V domains shown, COS0637temp with VL C94D (Kabat), already in the VL entry) VH: QVQLVESGGGVVQPGRSLRLSCAASGFTFSAYAMNWIRQPPGKGLEWIGLIYGSGSTFYASWAKGRVTISVDTSKNQFSLKLSSVTAADTAVYYCARGRSVNYNSDFHLWGQGTLVTVSS VL: DIQMTQSPSSLSASVGDRVTITCQASQSLHDKKNLAWYQQKPGQPPKLLIYGASTLESGVPSRFSGSGSGTDFTLTISSLQPEDFATYYCQGEFSDSSADCNTFGQGTKVEIKR | no binding (tested: 100 nM)
AL0453 (antibody, human IgG1, kappa, V domains shown, COS0637temp with VL C94E (Kabat), already in the VL entry) VH: QVQLVESGGGVVQPGRSLRLSCAASGFTFSAYAMNWIRQPPGKGLEWIGLIYGSGSTFYASWAKGRVTISVDTSKNQFSLKLSSVTAADTAVYYCARGRSVNYNSDFHLWGQGTLVTVSS VL: DIQMTQSPSSLSASVGDRVTITCQASQSLHDKKNLAWYQQKPGQPPKLLIYGASTLESGVPSRFSGSGSGTDFTLTISSLQPEDFATYYCQGEFSESSADCNTFGQGTKVEIKR | no binding (tested: 100 nM)
AL0454 (antibody, human IgG1, kappa, V domains shown, COS0637temp with VL C94F (Kabat), already in the VL entry) VH: QVQLVESGGGVVQPGRSLRLSCAASGFTFSAYAMNWIRQPPGKGLEWIGLIYGSGSTFYASWAKGRVTISVDTSKNQFSLKLSSVTAADTAVYYCARGRSVNYNSDFHLWGQGTLVTVSS VL: DIQMTQSPSSLSASVGDRVTITCQASQSLHDKKNLAWYQQKPGQPPKLLIYGASTLESGVPSRFSGSGSGTDFTLTISSLQPEDFATYYCQGEFSFSSADCNTFGQGTKVEIKR | no binding (tested: 100 nM)
AL0455 (antibody, human IgG1, kappa, V domains shown, COS0637temp with VL C94G (Kabat), already in the VL entry) VH: QVQLVESGGGVVQPGRSLRLSCAASGFTFSAYAMNWIRQPPGKGLEWIGLIYGSGSTFYASWAKGRVTISVDTSKNQFSLKLSSVTAADTAVYYCARGRSVNYNSDFHLWGQGTLVTVSS VL: DIQMTQSPSSLSASVGDRVTITCQASQSLHDKKNLAWYQQKPGQPPKLLIYGASTLESGVPSRFSGSGSGTDFTLTISSLQPEDFATYYCQGEFSGSSADCNTFGQGTKVEIKR | no binding (tested: 100 nM)
AL0456 (antibody, human IgG1, kappa, V domains shown, COS0637temp with VL C94H (Kabat), already in the VL entry) VH: QVQLVESGGGVVQPGRSLRLSCAASGFTFSAYAMNWIRQPPGKGLEWIGLIYGSGSTFYASWAKGRVTISVDTSKNQFSLKLSSVTAADTAVYYCARGRSVNYNSDFHLWGQGTLVTVSS VL: DIQMTQSPSSLSASVGDRVTITCQASQSLHDKKNLAWYQQKPGQPPKLLIYGASTLESGVPSRFSGSGSGTDFTLTISSLQPEDFATYYCQGEFSHSSADCNTFGQGTKVEIKR | no binding (tested: 100 nM)
AL0457 (antibody, human IgG1, kappa, V domains shown, COS0637temp with VL C94I (Kabat), already in the VL entry) VH: QVQLVESGGGVVQPGRSLRLSCAASGFTFSAYAMNWIRQPPGKGLEWIGLIYGSGSTFYASWAKGRVTISVDTSKNQFSLKLSSVTAADTAVYYCARGRSVNYNSDFHLWGQGTLVTVSS VL: DIQMTQSPSSLSASVGDRVTITCQASQSLHDKKNLAWYQQKPGQPPKLLIYGASTLESGVPSRFSGSGSGTDFTLTISSLQPEDFATYYCQGEFSISSADCNTFGQGTKVEIKR | no binding (tested: 100 nM)
AL0458 (antibody, human IgG1, kappa, V domains shown, COS0637temp with VL C94K (Kabat), already in the VL entry) VH: QVQLVESGGGVVQPGRSLRLSCAASGFTFSAYAMNWIRQPPGKGLEWIGLIYGSGSTFYASWAKGRVTISVDTSKNQFSLKLSSVTAADTAVYYCARGRSVNYNSDFHLWGQGTLVTVSS VL: DIQMTQSPSSLSASVGDRVTITCQASQSLHDKKNLAWYQQKPGQPPKLLIYGASTLESGVPSRFSGSGSGTDFTLTISSLQPEDFATYYCQGEFSKSSADCNTFGQGTKVEIKR | no binding (tested: 100 nM)
